Source: US20230151068A1

Target: biotinylated His-Avi-TEAD (194-411) (UniProt P28347)
Test: SPR, biotinylated TEAD immobilized on the chip, Siderocalin-YAP as analyte

Sequence of Siderocalin-fused YAP (50-171) (P80188 other isoform, or with tags, fused parts or gaps): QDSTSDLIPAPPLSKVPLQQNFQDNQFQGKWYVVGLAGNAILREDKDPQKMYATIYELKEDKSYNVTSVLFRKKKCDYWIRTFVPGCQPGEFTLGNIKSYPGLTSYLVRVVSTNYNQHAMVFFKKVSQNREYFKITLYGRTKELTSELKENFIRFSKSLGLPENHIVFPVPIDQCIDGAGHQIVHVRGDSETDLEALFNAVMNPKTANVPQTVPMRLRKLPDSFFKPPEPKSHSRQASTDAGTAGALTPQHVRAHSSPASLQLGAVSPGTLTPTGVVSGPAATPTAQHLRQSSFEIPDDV

Kd: 570 nM
Substance: Siderocalin-fused YAP (50-171) (from UniProt P80188 21-198; P46937 50-171)
